In article PMC8939769:

Target: SARS-CoV-2 spike protein receptor binding domain (RBD) (SARS-CoV-2) (UniProt P0DTC2)
Assay: ELISA

## AZD7442 (combination of AZD8895 and AZD1061)
  IC50: 0.065 µg/mL
